To fix the notation:
B1: ROPY (RFP-OP18-YFP) FRET sensor: stathmin/oncoprotein18 (OP18) with sYFP2 donor and mScarlet-I R125I acceptor (natural protein)
chain: MASSDIQVKELEKRASGQAFELILSPRSKESVPDFPLSPPKKKDLSLEEIQKKLEAAEERRKSHEAEVLKQLAEKREHEKEVLQKAIEENNNFSKMAEEKLTHKMEANKENREAQMAAKLERLREKDKHVEEVRKNKESKDPADETEAD
B2: ROPY-4A, phospho-blocking variant of ROPY with four serines mutated into alanines (natural protein)
chain: B1 chain with S16A, S25A, S38A, S63A
B3: ROPY-4E, phospho-mimetic variant of ROPY with four serines mutated into glutamic acids (natural protein)
chain: B1 chain with S16E, S25E, S38E, S63E

Results on three molecules are retold here after paper PMC7138840.

Substitutions are numbered along the chain they refer to. Names and notes keep the numbering of the source.

The test concerns the target free tubulin heterodimers (human (endogenous in HEK293T and HeLa)) (UniProt P68363).
Sequence of UniProt P68363 (P68363 whole entry, chain 1 of 2): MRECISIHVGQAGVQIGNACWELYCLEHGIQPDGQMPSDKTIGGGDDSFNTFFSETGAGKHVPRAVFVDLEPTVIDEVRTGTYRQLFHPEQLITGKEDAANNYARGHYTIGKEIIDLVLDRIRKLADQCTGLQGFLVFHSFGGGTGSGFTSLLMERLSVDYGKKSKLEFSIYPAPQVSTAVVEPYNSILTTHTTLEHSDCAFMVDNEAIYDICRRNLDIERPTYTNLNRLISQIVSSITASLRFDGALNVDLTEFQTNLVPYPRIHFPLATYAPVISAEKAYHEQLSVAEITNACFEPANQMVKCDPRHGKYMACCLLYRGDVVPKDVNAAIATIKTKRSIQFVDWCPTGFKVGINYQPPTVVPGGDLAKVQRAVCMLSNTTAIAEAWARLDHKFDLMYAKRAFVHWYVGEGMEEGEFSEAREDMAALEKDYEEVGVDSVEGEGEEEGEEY
Sequence of UniProt P68363 (P07437 whole entry, chain 2 of 2, further chain): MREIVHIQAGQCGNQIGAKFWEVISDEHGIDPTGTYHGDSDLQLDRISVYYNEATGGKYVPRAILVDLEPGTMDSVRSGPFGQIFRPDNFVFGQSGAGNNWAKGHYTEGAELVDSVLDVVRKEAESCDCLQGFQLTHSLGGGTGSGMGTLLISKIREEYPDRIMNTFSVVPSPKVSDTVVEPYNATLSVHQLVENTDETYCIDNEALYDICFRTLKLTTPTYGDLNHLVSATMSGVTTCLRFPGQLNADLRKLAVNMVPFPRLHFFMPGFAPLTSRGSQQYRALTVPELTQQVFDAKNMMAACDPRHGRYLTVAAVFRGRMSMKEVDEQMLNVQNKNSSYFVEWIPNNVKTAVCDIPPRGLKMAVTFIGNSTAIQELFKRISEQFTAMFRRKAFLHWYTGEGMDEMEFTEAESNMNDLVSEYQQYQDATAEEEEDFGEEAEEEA
For the molecule B1, the Relative FRET increase (RFP/YFP ratio of the intramolecular sensor) after 10 µM paclitaxel for 1 h, HEK293T cells amounted to 1.11. Then B2, with 1.15. B3: the Relative FRET increase (RFP/YFP ratio of the intramolecular sensor) after 10 µM paclitaxel for 1 h, HEK293T cells stood at 1.01.
